Earlier results, collected in paper PMC5116920.

Biological target: Histone H4 (UniProt P62805)

- Kd: 100 µM
Substance: TAF1 BD (from UniProt P21675)
